Km data for 1 protein are collected here from article PMC4643112, “Diversity of hydrolases from hydrothermal vent sediments of the Levante Bay, Vulcano Island (Aeolian archipelago) identified by activity-based metagenomics and biochemical characterization of new esterases and an arabinopyranosidase” (Applied Microbiology and Biotechnology, 2015).

Substrate in the data set: CCCC(=O)Oc1ccc([N+](=O)[O-])cc1
The experiment in a line: colorimetric p-nitrophenol release. The class given is biochemical, Rhodothermus profundi. The note with it: 50 mM potassium phosphate pH 7.0, 0.1 % Triton X-100, standard assay, substrate varied 1-40 mM as printed.

B1: LIPESV12_26 (Rhodothermus profundi) (protein)
chain: MPHPTIQTVDLAYRSYGTEGPPLLILHGLLGSSGNWHTLARNAFSPHFRVFALDLRGHGRSPHAHPIDYPTMAADVQAFMDRHHLESAHVLGHSMGGKVAMELALSAPERVRRLVVVDIAPRSYPARHRTILDALQAIDPARYANRQAIDQALATYVPEAPIRQFLLKNLLYNPATRRYTWQVDLDGLVRYYDRINAAITDGRQFTGPVLFVRGARSDYLTEADWPTIRQLFPDACLATIPEAGHWVHADAPEAFAHLVLAFLQEKSGCVSSSKS
notes: full length, 275 residues, His6-tagged (pET-46c Ek/LIC), E. coli BL21(DE3); primers (translated) start MPHPTIQ, end VSSSKS; catalytic S94, D218, H245
As for B1, the Michaelis constant (Km) – broadly, the concentration of substrate that gives half-maximal velocity – was determined as 100 µM.
